How the values were obtained:
[1] = molecular target: T1, MTDH (364-582) (Homo sapiens, UniProt Q86UE4); test: GST-mediated pull-down of SND1 constructs and mutants by GST-tagged MTDH (364-582); format: binding; details: SND1 mutants in SND1 (16-339)
T1 construct: made in house; host or cells: E. coli DH5α
T1 sequence (Q86UE4 364-582): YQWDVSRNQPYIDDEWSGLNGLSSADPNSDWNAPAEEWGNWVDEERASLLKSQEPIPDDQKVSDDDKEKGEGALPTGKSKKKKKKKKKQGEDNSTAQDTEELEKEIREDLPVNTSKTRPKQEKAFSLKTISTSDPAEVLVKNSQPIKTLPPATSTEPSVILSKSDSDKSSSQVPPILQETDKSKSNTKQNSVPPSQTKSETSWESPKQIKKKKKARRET
Text: (§1) (FIG. 22A) In vitro pull-down of SND1 (16-339) by GST-tagged MTDH (364-582) harboring WT or mutant sequence. The proteins bound to GS4B were examined on SDS-PAGE and visualized by Coomassie blue staining. (FIG. 22B) In vitro pull-down of WT and mutant SND1 (16-339) by GST-tagged MTDH (364-582). The bound proteins were examined as in (FIG. 22A). For both (FIG. 22A) and (FIG. 22B), experiments were repeated three times; representative results are shown. The normalized percentage of binding was averaged from three experiments; mean±SEM was shown below the data. (FIG. 22C) HEK293T cells were transfected with human HA-SND1, WT Myc-MTDH or Myc-MTDH with indicated single point mutation. Lysates were immunoprecipitated with anti-Myc antibody and immunoblotted with the indicated antibodies. (FIG. 22D) HEK293T cells were transfected with human Myc-MTDH, WT HA-SND1 or mutant HA-SND1 with indicated single point mutations or deletions. Lysates were immunoprecipitated with anti-Myc and immunoblotted with the indicated antibodies.
GST-Mediated Pull-Down Assay: ˜20 μg of GST-MTDH (different truncation forms and site mutants) was bound to 10 μl of glutathione resin via GST tag. The resin was washed with 200 μl assay buffer (25 mM Tris, PH8.0, 150 mM NaCl, 3 mM DTT) three times to remove the excess unbound protein. 15 μg of His-SND1 (16-339) was added to the resin in a 100 μl volume suspended in the assay buffer with 2 mg/ml of BSA. The mixture was washed with 200 μl assay buffer twice before examined by SDS-PAGE, and visualized by Coomassie blue staining. The experiments were repeated 3 times and the ratio of SND1 associated with GST-MTDH was analyzed by ImageJ.

[2] = molecular target: T2, Myc-MTDH (Homo sapiens, UniProt Q86UE4, A78S/T317A); test: Co-immunoprecipitation of HA-SND1 (WT or mutant) with Myc-MTDH in HEK293T cells; format: cell-based; details: HEK293T cell lysates
T2 construct: Full-length HA-tagged SND1 was co-expressed with full-length Myc-tagged wild-type (WT) or mutant MTDH in HEK293T cells; expressed in transfected cells; host or cells: HEK293T
T2 sequence (Q86UE4 1-582 A78S/T317A): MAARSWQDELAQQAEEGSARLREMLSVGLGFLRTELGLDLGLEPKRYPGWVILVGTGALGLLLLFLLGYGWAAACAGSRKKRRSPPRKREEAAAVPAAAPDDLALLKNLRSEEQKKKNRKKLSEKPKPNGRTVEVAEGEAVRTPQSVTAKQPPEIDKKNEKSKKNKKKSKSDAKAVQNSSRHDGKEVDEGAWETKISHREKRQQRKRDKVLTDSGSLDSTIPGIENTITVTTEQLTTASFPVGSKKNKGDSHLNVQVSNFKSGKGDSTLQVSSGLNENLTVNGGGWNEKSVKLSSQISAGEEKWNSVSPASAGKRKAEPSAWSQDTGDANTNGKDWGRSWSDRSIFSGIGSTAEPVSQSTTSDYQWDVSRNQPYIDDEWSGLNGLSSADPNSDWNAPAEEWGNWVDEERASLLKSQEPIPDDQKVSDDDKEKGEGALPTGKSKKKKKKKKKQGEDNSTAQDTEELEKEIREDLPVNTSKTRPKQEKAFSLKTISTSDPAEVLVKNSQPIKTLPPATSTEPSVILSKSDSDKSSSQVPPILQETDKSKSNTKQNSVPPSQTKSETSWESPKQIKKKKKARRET
Text: as §1
Immunoprecipitation and western blot: For in vivo immunoprecipitation (IP) experiments, cultured cells were washed in cold PBS and lysed in lysis buffer (20 mM Tris pH 7.4, 0.15 M NaCl, 1 mM EDTA, 1 mM EGTA, 1% Tx-100, 0.0025 M Na2P2O7, 1 mM β-glycerolphosphate, 1 mM Na3VO4, and 1 mM NaF) with an EDTA-free protease inhibitor mixture (Roche Applied Science) and PMSF. Cell lysates were then incubated on ice for 10 min, centrifuged, and precleared by incubating with protein A/G beads (Santa Cruz Biotechnology) for 1 h at 4° C. For IP bead preparation, 30 μl of protein A/G beads were incubated with 5 μg of antibodies for 2 h at 4° C. IPs were carried out for overnight at 4° C., and beads were centrifuged, washed and subsequently boiled for 5 min in SDS protein loading buffer to elute bound protein. IP lysates were subjected to western blotting with indicated antibodies.

B1: Δ39-43: SND1 with deletion in the SN1 Lβ2-β3 loop (Δ39-43) (protein)
chain: VPTVQRGIIKMVLSGCAIIVRGQPPERQINLSNIRAGNLARRAAATQPDAKDTPDEPWAFPAREFLRKKLIGKEVCFTIENKTPQGREYGMIYLGKDTNGENIAESLVAEGLATRREGMRANNPEQNRLSECEEQAKAAKKGMWSEGNGSHTIRDLKYTIENPRHFVDSHHQKPVNAIIEHVRDGSVVRALLLPDYYLVTVMLSGIKCPTFRREADGSETPEPFAAEAKFFTESRLLQRDVQIILESCHNQNILGTILHPNGNITELLLKEGFARCVDWSIAVYTRGAEKLRAAERFAKERRLRIWRDYVAPTANLDQK
modifications: left off: small tags and cut ends
With B1 the “MTDH-binding of SND1 domains and mutants, in vitro” value (“MTDH-binding” below) [1] was “almost completely abolished MTDH-binding” and the “interaction of full-length HA-SND1 (WT or mutant) with Myc-MTDH” value (“interaction of full-length HA-SND1” for short) [2] was “nearly completely abolished MTDH-binding”.

B2: R255E: SND1 mutant R255E (protein, listed as Homo sapiens)
chain: MASSAQSGGSSGGPAVPTVQRGIIKMVLSGCAIIVRGQPRGGPPPERQINLSNIRAGNLARRAAATQPDAKDTPDEPWAFPAREFLRKKLIGKEVCFTIENKTPQGREYGMIYLGKDTNGENIAESLVAEGLATRREGMRANNPEQNRLSECEEQAKAAKKGMWSEGNGSHTIRDLKYTIENPRHFVDSHHQKPVNAIIEHVRDGSVVRALLLPDYYLVTVMLSGIKCPTFRREADGSETPEPFAAEAKFFTESELLQRDVQIILESCHNQNILGTILHPNGNITELLLKEGFARCVDWSIAVYTRGAEKLRAAERFAKERRLRIWRDYVAPTANLDQKDKQFVAKVMQVLNADAIVVKLNSGDYKTIHLSSIRPPRLEGENTQDKNKKLRPLYDIPYMFEAREFLRKKLIGKKVNVTVDYIRPASPATETVPAFSERTCATVTIGGINIAEALVSKGLATVIRYRQDDDQRSSHYDELLAAEARAIKNGKGLHSKKEVPIHRVADISGDTQKAKQFLPFLQRAGRSEAVVEYVFSGSRLKLYLPKETCLITFLLAGIECPRGARNLPGLVQEGEPFSEEATLFTKELVLQREVEVEVESMDKAGNFIGWLHIDGANLSVLLVEHALSKVHFTAERSSYYKSLLSAEEAAKQKKEKVWAHYEEQPVEEVMPVLEEKERSASYKPVFVTEITDDLHFYVQDVETGTQLEKLMENMRNDIASHPPVEGSYAPRRGEFCIAKFVDGEWYRARVEKVESPAKIHVFYIDYGNREVLPSTRLGTLSPAFSTRVLPAQATEYAFAFIQVPQDDDARTDAVDSVVRDIQNTQCLLNVEHLSAGCPHVTLQFADSKGDVGLGLVKEGLVMVEVRKEKQFQKVITEYLNAQESAKSARLNLWRYGDFRADDADEFGYSR
In the case of B2, the “MTDH-binding” value [1] is reported as “almost completely abolished MTDH-binding” and the “interaction of full-length HA-SND1” value [2] is reported as “nearly completely abolished MTDH-binding”.

B3: WT HA-SND1: full-length HA-tagged wild-type human SND1 (protein)
chain: MASSAQSGGSSGGPAVPTVQRGIIKMVLSGCAIIVRGQPRGGPPPERQINLSNIRAGNLARRAAATQPDAKDTPDEPWAFPAREFLRKKLIGKEVCFTIENKTPQGREYGMIYLGKDTNGENIAESLVAEGLATRREGMRANNPEQNRLSECEEQAKAAKKGMWSEGNGSHTIRDLKYTIENPRHFVDSHHQKPVNAIIEHVRDGSVVRALLLPDYYLVTVMLSGIKCPTFRREADGSETPEPFAAEAKFFTESRLLQRDVQIILESCHNQNILGTILHPNGNITELLLKEGFARCVDWSIAVYTRGAEKLRAAERFAKERRLRIWRDYVAPTANLDQKDKQFVAKVMQVLNADAIVVKLNSGDYKTIHLSSIRPPRLEGENTQDKNKKLRPLYDIPYMFEAREFLRKKLIGKKVNVTVDYIRPASPATETVPAFSERTCATVTIGGINIAEALVSKGLATVIRYRQDDDQRSSHYDELLAAEARAIKNGKGLHSKKEVPIHRVADISGDTQKAKQFLPFLQRAGRSEAVVEYVFSGSRLKLYLPKETCLITFLLAGIECPRGARNLPGLVQEGEPFSEEATLFTKELVLQREVEVEVESMDKAGNFIGWLHIDGANLSVLLVEHALSKVHFTAERSSYYKSLLSAEEAAKQKKEKVWAHYEEQPVEEVMPVLEEKERSASYKPVFVTEITDDLHFYVQDVETGTQLEKLMENMRNDIASHPPVEGSYAPRRGEFCIAKFVDGEWYRARVEKVESPAKIHVFYIDYGNREVLPSTRLGTLSPAFSTRVLPAQATEYAFAFIQVPQDDDARTDAVDSVVRDIQNTQCLLNVEHLSAGCPHVTLQFADSKGDVGLGLVKEGLVMVEVRKEKQFQKVITEYLNAQESAKSARLNLWRYGDFRADDADEFGYSR
For B3, the “interaction of full-length HA-SND1” value [2] was “bound readily with Myc-MTDH”.

B4: F250A: SND1 mutant F250A (protein, listed as Homo sapiens)
chain: MASSAQSGGSSGGPAVPTVQRGIIKMVLSGCAIIVRGQPRGGPPPERQINLSNIRAGNLARRAAATQPDAKDTPDEPWAFPAREFLRKKLIGKEVCFTIENKTPQGREYGMIYLGKDTNGENIAESLVAEGLATRREGMRANNPEQNRLSECEEQAKAAKKGMWSEGNGSHTIRDLKYTIENPRHFVDSHHQKPVNAIIEHVRDGSVVRALLLPDYYLVTVMLSGIKCPTFRREADGSETPEPFAAEAKAFTESRLLQRDVQIILESCHNQNILGTILHPNGNITELLLKEGFARCVDWSIAVYTRGAEKLRAAERFAKERRLRIWRDYVAPTANLDQKDKQFVAKVMQVLNADAIVVKLNSGDYKTIHLSSIRPPRLEGENTQDKNKKLRPLYDIPYMFEAREFLRKKLIGKKVNVTVDYIRPASPATETVPAFSERTCATVTIGGINIAEALVSKGLATVIRYRQDDDQRSSHYDELLAAEARAIKNGKGLHSKKEVPIHRVADISGDTQKAKQFLPFLQRAGRSEAVVEYVFSGSRLKLYLPKETCLITFLLAGIECPRGARNLPGLVQEGEPFSEEATLFTKELVLQREVEVEVESMDKAGNFIGWLHIDGANLSVLLVEHALSKVHFTAERSSYYKSLLSAEEAAKQKKEKVWAHYEEQPVEEVMPVLEEKERSASYKPVFVTEITDDLHFYVQDVETGTQLEKLMENMRNDIASHPPVEGSYAPRRGEFCIAKFVDGEWYRARVEKVESPAKIHVFYIDYGNREVLPSTRLGTLSPAFSTRVLPAQATEYAFAFIQVPQDDDARTDAVDSVVRDIQNTQCLLNVEHLSAGCPHVTLQFADSKGDVGLGLVKEGLVMVEVRKEKQFQKVITEYLNAQESAKSARLNLWRYGDFRADDADEFGYSR
B4 was tested, and the “MTDH-binding” value [1] was “almost completely abolished MTDH-binding” and the “interaction of full-length HA-SND1” value [2] was “nearly completely abolished MTDH-binding”.

B5: R324A: SND1 mutant R324A (protein)
chain: VPTVQRGIIKMVLSGCAIIVRGQPRGGPPPERQINLSNIRAGNLARRAAATQPDAKDTPDEPWAFPAREFLRKKLIGKEVCFTIENKTPQGREYGMIYLGKDTNGENIAESLVAEGLATRREGMRANNPEQNRLSECEEQAKAAKKGMWSEGNGSHTIRDLKYTIENPRHFVDSHHQKPVNAIIEHVRDGSVVRALLLPDYYLVTVMLSGIKCPTFRREADGSETPEPFAAEAKFFTESRLLQRDVQIILESCHNQNILGTILHPNGNITELLLKEGFARCVDWSIAVYTRGAEKLRAAERFAKERRLAIWRDYVAPTANLDQK
modifications: left off: small tags and cut ends
B5 was tested, and the “MTDH-binding” value [1] was “barely affected MTDH-binding”.

— patent US10357539B2, “Use of peptides that block metadherin-SND1 interaction as treatment for cancer” (THE TRUSTEES OF PRINCETON UNIVERSITY, priority 2014, dated 2019)
